Reference: publication PMC10441969, “Small protein Cgl2215 enhances phenolic tolerance by promoting MytA activity in Corynebacterium glutamicum” (Stress Biology, 2022)

Target: T1, His6-MytA (C. glutamicum, UniProt P0C1D6 44-657)
T1 sequence (looked up): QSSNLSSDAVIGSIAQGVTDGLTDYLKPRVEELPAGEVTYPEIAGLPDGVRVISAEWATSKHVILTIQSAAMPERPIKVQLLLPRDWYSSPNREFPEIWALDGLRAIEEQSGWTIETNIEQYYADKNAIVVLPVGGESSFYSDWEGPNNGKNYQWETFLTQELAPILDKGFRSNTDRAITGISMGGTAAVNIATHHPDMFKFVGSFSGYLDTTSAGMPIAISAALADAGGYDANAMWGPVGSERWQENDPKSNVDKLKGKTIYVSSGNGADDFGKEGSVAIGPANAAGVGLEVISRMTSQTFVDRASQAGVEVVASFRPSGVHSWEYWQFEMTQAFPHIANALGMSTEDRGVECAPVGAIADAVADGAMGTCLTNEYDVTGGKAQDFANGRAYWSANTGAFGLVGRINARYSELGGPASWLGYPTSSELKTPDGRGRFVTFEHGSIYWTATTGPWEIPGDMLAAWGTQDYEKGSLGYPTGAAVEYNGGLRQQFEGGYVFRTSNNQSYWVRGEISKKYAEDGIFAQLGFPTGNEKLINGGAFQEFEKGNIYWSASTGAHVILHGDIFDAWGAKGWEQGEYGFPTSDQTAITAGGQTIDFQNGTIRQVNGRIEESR
Assay: cell-based or functional assay

in vitro esterase activity of MytA (release of p-NP from p-NPP; MytA 4.7 μM) with GST-Cgl2215 at a 1:1 ratio of GST-Cgl2215:MytA and higher ratios (further increased): 1.6 fold
B1: GST-Cgl2215 (natural protein, C. glutamicum, UniProt Q8NNI6 1-71, looked up)
chain: MNHKLFGSKQFRKEKEMGLRIRPNEMKVWETFTLERQLEVIINADHLLLFRGEPHGTVSLSDVVASELIGI
